Laboratory results reported in paper PMC6212398, “Competing protein-protein interactions regulate binding of Hsp27 to its client protein tau” (Nature Communications, 2018).

Key:
[1] = target: Hsp27 alpha-crystallin domain (ACD, residues Q80–S176) (human) (UniProt P04792); assay: ITC; K18 tau with Hsp27 ACD (Supplementary Figure 3B); limited by solubility
[2] = target: Hsp27 alpha-crystallin domain (ACD, residues Q80–S176) (human) (UniProt P04792); assay: ELISA; competitive ELISA of K18 tau on Hsp27 ACD (Supplementary Figure 3A); format not told
Hsp27 ΔNTD GPG (human) = Hsp27 ΔNTD GPG (human) (UniProt P04792); assay: not stated; oligomeric state of Hsp27 GPG, ΔNTD and ΔNTD GPG (Supplementary Figure 8B, 8C); method not given

Hsp27 alpha-crystallin domain (ACD, residues Q80–S176) (human), sequence (P04792 80-176): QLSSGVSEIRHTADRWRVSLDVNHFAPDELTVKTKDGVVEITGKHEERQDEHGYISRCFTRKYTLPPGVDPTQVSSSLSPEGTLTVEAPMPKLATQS

Substance | Kd [1] [µM] | IC50 [2] [µM] | stoichiometry N (Hsp27 ΔNTD GPG (human))
K18 tau (the four microtubule-binding repeats) (domain or fragment) | > 100 | > 100 | –
Hsp27 ΔNTD GPG (from UniProt P04792 80-205) (domain or fragment) | – | – | 2
